Measured values: article PMC8163065, “Involvement of the R2R3-MYB transcription factor MYB21 and its homologs in regulating flavonol accumulation in Arabidopsis stamen”

T1: GST-MYB21 (Arabidopsis thaliana, UniProt Q9LK95 1-226)
T1 sequence: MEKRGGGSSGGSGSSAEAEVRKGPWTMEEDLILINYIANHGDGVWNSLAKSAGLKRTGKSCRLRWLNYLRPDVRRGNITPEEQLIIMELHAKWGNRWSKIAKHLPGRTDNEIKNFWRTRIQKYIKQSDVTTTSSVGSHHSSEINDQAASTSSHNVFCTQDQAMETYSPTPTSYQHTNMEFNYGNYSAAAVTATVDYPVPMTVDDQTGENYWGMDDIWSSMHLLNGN

B1: GARE2 FLS1 promoter probe (dsDNA)
DNA 1: AGCCAGTGGCGATAAGCTGGGCCTTGTCTTGTTATATGGGCCTTGAATC
DNA 2: GATTCAAGGCCCATATAACAAGACAAGGCCCAGCTTATCGCCACTGGCT
B2: GARE1 FLS1 promoter probe (dsDNA)
DNA 1: AGCCAGTGGCGATAAGCTCTCACCTTTTTTTTGTTATTTTATATCTTAAG
DNA 2: CTTAAGATATAAAATAACAAAAAAAAGGTGAGAGCTTATCGCCACTGGCT

Molecular target: T1, GST-MYB21
Assay: EMSA; LightShift Chemiluminescent EMSA kit (Thermo), per manufacturer; buffer, salt, pH and temperature not stated
Details: protein: recombinant; tags: N-terminal GST (pGEX-4T-1); label: biotin (via primer S18, 5' tail); blunt

Binder | binding result
B1 | binds
B2 | binds
